Test results taken from the nanobody polyreactivity screen of Harvey et al. (2022).

Assay: yeast display, Sf9 membrane polyspecificity reagent, FACS + sequencing; frameworks hold sequencing errors
Outline: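 Nanobodies from a synthetic yeast display library (Saccharomyces cerevisiae BJ5465), induced 36–48 hours with galactose, were stained 1 hour at 4 °C with 10% biotinylated, detergent-solubilized Sf9 membrane reagent, enriched on streptavidin microbeads, then FACS-sorted. Anti-HA (expression) and streptavidin (reagent binding) fluorescence set low and high (top ~1%) gates. Polyreactivity labels come from the gate of origin. Genes were colony-PCR amplified, MiSeq 2 × 250 sequenced and filtered by CDR length.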

Sequence | polyreactivity (PSR sort gate)
HGQLVESGGGLVQAGGSLRLSCAASGITFTPKDMGWYREAPGKERELVAAISSSDGTTYYADSVTGRFTSSRDNAKNTVYLQMNSLKPEDTAVYYCAAEYYYSPAYDYYSGFKTLYYDWGQGTQVTGSS | high polyreactivity
HLQLVESGGGLVQAGGSLRLSCAPSGSTFKRNTKGWYRQAPGKEREMVASINRGGSTYYADSVKGRFTISSDNAKNTVYLQMNSLKPEDTAVYYCAKRVLNCYTGTQAPNKFGYWGQGTQVTVSS | low polyreactivity
HVLLVESAGGLVQAGGSLRLSCAASGLIFHRYAMGWYRQAPGKERELVAAISSSGGITYYADSVKGRFTISRDNAKNTVYLQMNSLKPEDTAFYYCAADTGKGTPFSAGLGRAGDYWGQVTQVTVSS | low polyreactivity
HVQLGESGGGLVQAGGSLRLSCAASGFIFQRYAMGWDRQAPGKERELVAAITTSGGRTYYADSVKGRFTMSRDNAKKTVYLQMNSLKPEDTAVYYCAAEGSHNSEYWGQGTQVTVSS | high polyreactivity
HVQLQESDGGLVQAGGSLRLSCAASGSISPQYYMCWYRQAPGKEREFVAISKGTTTYYADSVKGRLTISRVNAKNTVYLQMNSLKPEDTAVYCCAAGRWLQKVHAYWDQGTQVTVSS | low polyreactivity
HVQLQESGGCLVQAGGSLRLSCAARGSNSRLDSMGWNRQASGKVRELVAAIDNGSTTYYADSVKGRLTISRDNAKYSVYLQMNSLKAEDTAVYFCAAVRGGGGTHAYWGQGTQVTVSG | low polyreactivity
HVQLQESGGGLVQAGGSLRLSCAASGNISNSRNMGWYRQAPGKERELVAAIDRGAITYYADSVKGRFTISRDNAKNTVYLQIYSLKPEDTAVYYCAAEYHDRWDHRYWGQGTQVTVSS | high polyreactivity
HVQLQESGGGLVQAGGSLRLSCAASGNISYSRNMGWYRQAPGKERELVAAIDRGAITYYADSVKGRFTISRDNAKNTVYLQIYSLKPEDTAVYYCAAEDHDRWDHLYWGQGTQVTVSS | high polyreactivity
HVQLVEAGGGLVQAGGSLRVSCAASGFTIHYNAMGWYRQAPGKGWELVATISKSAGITSYADSVKGRFTISRDNATNTVYFPMNSLKPEDTAVYYCAADKSYRRVYYWGQGSQVTVSS | low polyreactivity
HVQLVESGGGFVQAGGSLRLSCASYGSIFSGYAMGSYRQAPAKERELVAAISNTGSTNYADSVKGRFTISRDNAKYNVYLQMNSLKPEDTAVYYCNASYSYGEMDYWGQGTQVTVSS | low polyreactivity
HVQLVESGGGLVQAAGSLRLSCAASGSTFYRYAMGWYRQAPVKERELVAAITRGGGRTYYADSVKGRFTISRDNAKNTVYLQMNSLKPEDTAVFYCNAASPYYDSWGQGTQVTVSS | high polyreactivity
HVQLVESGGGLVQAGARLRLSCAASGITFFYYAMGWYRQAPGKERELVAAINWSGRTYYADSVKGRFTISRDNAKNTVYLQMNSLKPEDTAVDYCAAVTYGPGVSGMDYWGQGTQVTVSS | low polyreactivity
HVQLVESGGGLVQAGGILRLSCAASGRIFPGYTMGWYRQGPGKERELVARISFSDGSTYYADSVNGRFTISRDNAKNTVYFQMNSRKPEDTAVYYCNAATYRNRHSNNGYWGQGTQVTVSS | low polyreactivity
HVQLVESGGGLVQAGGSLRLSCAASGFIFDVNAMGWYRQAPGKERELVAVIRGSGGSTYYADSVKGRFTISRDNAKNTVYLQMNSLKPADTAVYYCAAAVNHVAYHYNYWGQGTQVTVSS | high polyreactivity
HVQLVESGGGLVQAGGSLRLSCAASGFIFRGHVMGWYRQAPGKERELVAAISGGSTTYADSVKGRFTISRDNAKTTVYLQMNSLKPEDTAVYYCAKRDQDRTFPNGYWGQGTQVTVSS | high polyreactivity
HVQLVESGGGLVQAGGSLRLSCAASGFIFVFYDMGWYRPAPGKERELVAGITRNDGSTYYADSVKGRFKISRDNAKNTVYLQMNSLKPEDTAVYYCAADRVRRNDKLAYDYWGQGTQVTVSS | low polyreactivity
HVQLVESGGGLVQAGGSLRLSCAASGFIGIYALGWYRQAPGKERELVAAITTSGGRTYYADSVKGRFTISRDNAKNTVYLQMNSLKPEDTAVYYCAAPWRLFSLYDYWGQGTQVTVSS | low polyreactivity
HVQLVESGGGLVQAGGSLRLSCAASGFTFPIYTMGWYRQAPGKESELVAAISASGGRTYYADSVKGRFTISRDNAKNTVYFQMNSLNPEDTSVYFCAADGYRAPGNAYYYWGQGTQVTVSS | high polyreactivity
HVQLVESGGGLVQAGGSLRLSCAASGFTFRRNAMGWYRQSPGKERELVASITQRGGSTYYADSVKGRFTISRDNAKNTVYLQMNSLKPADTAVYDCNARSWDSFHPHDYWGQGTLVTVSS | high polyreactivity
HVQLVESGGGLVQAGGSLRLSCAASGFTIQRYAMGWYRQAPGKERELVAAITSGGSTYYADSVKGRFTISRDNAMNTVYLQMNSLKPEDTAVYYCATRAVWSSWGRRYDSWGQGTQVTVSS | high polyreactivity
HVQLVESGGGLVQAGGSLRLSCAASGIIFIGNAMGWYSQAPGKERELVAAISRRGGRTYYADSVKGRFTISRDNAKNTVYLQMNSLKPEDTAVYYCNAEISVNDDDYWGQGTQVTVSS | high polyreactivity
HVQLVESGGGLVQAGGSLRLSCAASGIIFWTYTMGWYRQAPGKERELVGAISSGGSTKYADSVKGRFTISRDNAKNTVYLQMNSLKPADTAVYYCNAEFAPWGSAYGHDQYDYWGQGTQVTVSS | low polyreactivity

Sequence | polyreactivity (PSR sort gate)
HVQLVESGGGLVQAGGSLRLSCAASGITFPIYAMGWYRQAPGKEREFVAAINQRGGSTYYADSVKGRFTISRDNAKNTVYLQMNSLKPEDTAVDYCAAENGFNSLSRSGLHYWGQGTQVTVSS | low polyreactivity
HVQLVESGGGLVQAGGSLRLSCAASGLIFSAYAMGWYRQAPGKEREFVAAISRSGGITFYADSVKGRFTISRDNAKNTVYLQMNSLKPEDTAVYYCAARLYKYRRGGGYFWGQGTKVTVSS | high polyreactivity
HVQLVESGGGLVQAGGSLRLSCAASGLTFEDNDMGWYRQAPGKERELVAAISSAGSTSYADSVKGRFTISRVNAKNTVYLQMNSLKPEDTAVYYCAKDNSPSYTPAQLDGGDDYWGHGTQVTVSS | low polyreactivity
HVQLVESGGGLVQAGGSLRLSCAASGNTFKYYAMGWYRQAPGKERELVAAISYSGGSTYYADSVKGRFTISRDNAKNTVYLQMNSLKPEDTAVYYCAADLDSERYYWGQGTQVTVSS | low polyreactivity
HVQLVESGGGLVQAGGSLRLSCAASGRIFGPNAMGWYRQAPGKERELVAAISSGTGSRTYYADSVKGRFTISRDNAKKTVSLQMISLKPEDTAVYYCAVYSQQVYRWKYRFDYWGQGTQVTVSS | low polyreactivity
HVQLVESGGGLVQAGGSLRLSCAASGRIFLRYAMGWYRQAPGKERELVAVISSGGSTYYADSVKGRFTISRDNAKNTVYLQMHSLKPEDSAVYYCAARRHDSRYQYDYWGQGTQVSVSS | high polyreactivity
HVQLVESGGGLVQAGGSLRLSCAASGRIFSVYAMGWYRQAPGKEWEFVAAITTNGGSTYYADSVKGRFTISRDNAKNTVYLQMNSLKPEDTAVYYCAAYRSRVNGYRVDYWGQGTQVTVSS | high polyreactivity
HVQLVESGGGLVQAGGSLRLSCAASGRILVHNAMGWYRQAPGKERELVAVITARGASTYYADSVKGRFTISRDNAKNSVYLQMNSLKPEDTAVYYCATDKRPKYYNQYDYWGQGTQVTVSS | low polyreactivity
HVQLVESGGGLVQAGGSLRLSCAASGRSFYKYAMGWYRQAPGKERELVAAISLRGARTYYADSVKGRFTISRDNATNTVYLQMHSLKPEETAVYYCAADNYYVRYAYNKSYSWGQGTQVTGSS | low polyreactivity
HVQLVESGGGLVQAGGSLRLSCAASGRTFSFYVMGWYRQAPGKERELVAAISSSGGRTYYADSVKGRFTISRDNAKNTVYVQMNSLKPEDTAVYYCAVDQPFVSWRLFTQPDSYPRDYWGQGTQVTVSS | low polyreactivity
HVQLVESGGGLVQAGGSLRLSCAASGRTLRRNAMGWYRQAPGKERELVAAINYSGANTYYADSVKGRFTISRDNAKNTVYLQMNSLKPEDTAVYYCAAASTSYRGISGGDYWGQGTQVTVSS | high polyreactivity
HVQLVESGGGLVQAGGSLRLSCAASGSIFGLYAMGWSRQAPGKEWELVAAITRGDSTNYADSVKGRFTISRDNAKNTVYLQMNSLKPEDTAVYYCNAVYAGWRGGNYWGQGTQVTVSS | low polyreactivity
HVQLVESGGGLVQAGGSLRLSCAASGSIFIGNAMGWYRQAPGKERELVAAISKSDGRTYYADSVKGRFTISRDNAKNTVYLQMNSLKPEDTAVYFCAADAYWEPKVGFSLFDYWGQGTQVTVSS | low polyreactivity
HVQLVESGGGLVQAGGSLRLSCAASGSIFRGNAMGWYRQAPGKERELVAAISKSGGSTYYADSVKGRFTISRDNAKNTVFVQMNSLKPEDTAVYYCAARTTYLYGMYYWGQGTQVTVSS | low polyreactivity
HVQLVESGGGLVQAGGSLRLSCAASGSIFWGNAMGWYRQAAGKERELVAAISWGGGRTYYADSVKGRFTISRDTAKNTVYLQMNSLKPEDTAVYYCNTRYPYVVSTGYDYWGQGTQVTVSS | high polyreactivity
HVQLVESGGGLVQAGGSLRLSCAASGSTFSYNAMGWYRQAPGKEWELVAAISWRGTSTYYADSVKGRFTISRDNAKKTVYLQMNSLKPEDTAVYYCAAPYGVSYKGATYDSWGQGTQVTVSS | high polyreactivity
HVQLVESGGGLVQAGGSLRLSCAASGSTFTRNAMGWSRQAPGKEWELVAVISSRGGRTYYADSVKGRFTISRDNAKNTVDLQMNSLKPEATAVYYCAARYVIPLGNTYDYWGPGTQVTVSS | high polyreactivity
HVQLVESGGGLVQAGGSLRLSCAASGSTFTTNVRGWYRQAPGKERELVAAISWNGASTNYADSVKGRFTISRDNAKNTVYLHMNSLNPEDTAVYYCAADVTGLVWDSYYYYFLYEYEYWGQGTQVTVSS | high polyreactivity
HVQLVESGGGLVQAGGSLRLSCADSGRILYYYAMRWYIQEPGKERELVAAINSSGGSPYYADSVKGRFTISRDIAKNTVYLQMNSLKPEDTAVYYGAAEYQVQGYDYWGQGSQVTVSS | high polyreactivity
HVQLVESGGGLVQAGGSLRLSCPASGRIFYRNPMGWYRQAPGKERELVAGISKRGGSTYYADSVKGRFTISRDNAKNTVYLQMNSLKPEDTAVYYCATVPYSPPSAGPEYDYWGQGTQVTVSS | high polyreactivity
HVQLVESGGGLVQAGGSLRLTCAAYGINFTDYAMGWYRQDPGKEMELVAAISSGGGSTYYADSVKGRFTISLDYAKNTVYLQMNSLKPEDTAVYYCAAEGYLISGAGDYMYDYYWGQGTQVTVSS | high polyreactivity
